IntAct's records for PubMed 31515488

B1: Nebulette (Homo sapiens), O76041 (parent)
chain: MRVPVFEDIKDETEEEKIGEEENEEDQVFYKPVIEDLSMELARKCTELISDIRYKEEFKKSKDKCTFVTDSPMLNHVKNIGAFISEAKYKGTIKADLSNSLYKRMPATIDSVFAGEVTQLQSEVAYKQKHDAAKGFSDYAHMKEPPEVKHAMEVNKHQSNISYRKDVQDTHTYSAELDRPDIKMATQISKIISNAEYKKGQGIMNKEPAVIGRPDFEHAVEASKLSSQIKYKEKFDNEMKDKKHHYNPLESASFRQNQLAATLASNVKYKKDIQNMHDPVSDLPNLLFLDHVLKASKMLSGREYKKLFEENKGMYHFDADAVEHLHHKGNAVLQSQVKYKEEYEKNKGKPMLEFVETPSYQASKEAQKMQSEKVYKEDFEKEIKGRSSLDLDKTPEFLHVKYITNLLREKEYKKDLENEIKGKGMELNSEVLDIQRAKRASEMASEKEYKKDLESIIKGKGMQAGTDTLEMQHAKKAAEIASEKDYKRDLETEIKGKGMQVSTDTLDVQRAKKASEMASQKQYKKDLENEIKGKGMQVSMDIPDILRAKRTSEIYSQRKYKDEAEKMLSNYSTIADTPEIQRIKTTQQNISAVFYKKEVGAGTAVKDSPEIERVKKNQQNISSVKYKEEIKHATAISDPPELKRVKENQKNISNLQYKEQNYKATPVSMTPEIERVRRNQEQLSAVKYKGELQRGTAISDPPELKRAKENQKNISNVYYRGQLGRATTLSVTPEMERVKKNQENISSVKYTQDHKQMKGRPSLILDTPAMRHVKEAQNHISMVKYHEDFEKTKGRGFTPVVDDPVTERVRKNTQVVSDAAYKGVHPHIVEMDRRPGIIVDLKVWRTDPGSIFDLDPLEDNIQSRSLHMLSEKASHYRRHWSRSHSSSTFGTGLGDDRSEISEIYPSFSCCSEVTRPSDEGAPVLPGAYQQSHSQGYGYMHQTSVSSMRSMQHSPNLRTYRAMYDYSAQDEDEVSFRDGDYIVNVQPIDDGWMYGTVQRTGRTGMLPANYIEFVN
partner: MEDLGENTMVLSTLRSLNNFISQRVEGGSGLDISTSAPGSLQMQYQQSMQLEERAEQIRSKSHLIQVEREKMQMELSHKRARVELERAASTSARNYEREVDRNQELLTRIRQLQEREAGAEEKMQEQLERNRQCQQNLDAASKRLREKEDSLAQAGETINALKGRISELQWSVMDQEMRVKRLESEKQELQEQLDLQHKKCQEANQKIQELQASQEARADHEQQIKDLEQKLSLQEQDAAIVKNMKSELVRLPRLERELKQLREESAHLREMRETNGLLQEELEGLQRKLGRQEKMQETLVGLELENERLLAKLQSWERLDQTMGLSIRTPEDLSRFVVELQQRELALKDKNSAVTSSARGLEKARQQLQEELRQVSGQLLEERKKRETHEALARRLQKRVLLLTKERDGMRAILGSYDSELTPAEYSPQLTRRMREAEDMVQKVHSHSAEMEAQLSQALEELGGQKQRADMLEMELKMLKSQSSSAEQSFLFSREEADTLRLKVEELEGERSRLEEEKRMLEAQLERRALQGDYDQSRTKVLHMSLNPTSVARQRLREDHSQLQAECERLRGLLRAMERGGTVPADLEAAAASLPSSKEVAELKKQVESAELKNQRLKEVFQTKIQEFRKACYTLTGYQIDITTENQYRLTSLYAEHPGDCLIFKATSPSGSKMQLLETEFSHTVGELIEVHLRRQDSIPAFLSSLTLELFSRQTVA
B2: Serpin I2 (Homo sapiens), O75830 (parent)
chain: MDTIFLWSLLLLFFGSQASRCSAQKNTEFAVDLYQEVSLSHKDNIIFSPLGITLVLEMVQLGAKGKAQQQIRQTLKQQETSAGEEFFVLKSFFSAISEKKQEFTFNLANALYLQEGFTVKEQYLHGNKEFFQSAIKLVDFQDAKACAEMISTWVERKTDGKIKDMFSGEEFGPLTRLVLVNAIYFKGDWKQKFRKEDTQLINFTKKNGSTVKIPMMKALLRTKYGYFSESSLNYQVLELSYKGDEFSLIIILPAEGMDIEEVEKLITAQQILKWLSEMQEEEVEISLPRFKVEQKVDFKDVLYSLNITEIFSGGCDLSGITDSSEVYVSQVTQKVFFEINEDGSEAATSTGIHIPVIMSLAQSQFIANHPFLFIMKHNPTESILFMGRVTNPDTQEIKGRDLDSL
B3: WASH complex subunit 3 (Homo sapiens), Q9Y3C0 (parent)
chain: MDEDGLPLMGSGIDLTKVPAIQQKRTVAFLNQFVVHTVQFLNRFSTVCEEKLADLSLRIQQIETTLNILDAKLSSIPGLDDVTVEVSPLNVTSVTNGAHPEATSEQPQQNSTQDSGLQESEVSAENILTVAKDPRYARYLKMVQVGVPVMAIRNKMISEGLDPDLLERPDAPVPDGESEKTVEESSDSESSFSD
partner: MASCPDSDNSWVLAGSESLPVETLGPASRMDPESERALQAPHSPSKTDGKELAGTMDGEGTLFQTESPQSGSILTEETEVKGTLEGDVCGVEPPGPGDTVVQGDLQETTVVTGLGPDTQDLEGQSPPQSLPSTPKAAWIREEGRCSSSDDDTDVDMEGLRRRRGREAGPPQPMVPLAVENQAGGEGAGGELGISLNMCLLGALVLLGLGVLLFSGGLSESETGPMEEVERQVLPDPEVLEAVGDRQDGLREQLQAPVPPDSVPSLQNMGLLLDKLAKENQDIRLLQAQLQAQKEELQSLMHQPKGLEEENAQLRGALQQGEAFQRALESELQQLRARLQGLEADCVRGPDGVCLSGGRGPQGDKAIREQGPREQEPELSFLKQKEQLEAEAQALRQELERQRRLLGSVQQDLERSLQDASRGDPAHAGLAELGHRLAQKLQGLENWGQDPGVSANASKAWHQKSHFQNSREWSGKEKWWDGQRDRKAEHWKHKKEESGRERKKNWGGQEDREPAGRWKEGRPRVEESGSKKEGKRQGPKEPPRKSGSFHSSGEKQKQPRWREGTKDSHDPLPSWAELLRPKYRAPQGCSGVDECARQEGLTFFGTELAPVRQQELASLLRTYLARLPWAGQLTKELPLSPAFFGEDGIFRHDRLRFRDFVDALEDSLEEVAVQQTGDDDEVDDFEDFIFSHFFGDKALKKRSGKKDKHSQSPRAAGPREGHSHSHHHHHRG
B4: Kelch-like protein 3 (Homo sapiens), Q9UH77 (parent)
chain: MEGESVKLSSQTLIQAGDDEKNQRTITVNPAHMGKAFKVMNELRSKQLLCDVMIVAEDVEIEAHRVVLAACSPYFCAMFTGDMSESKAKKIEIKDVDGQTLSKLIDYIYTAEIEVTEENVQVLLPAASLLQLMDVRQNCCDFLQSQLHPTNCLGIRAFADVHTCTDLLQQANAYAEQHFPEVMLGEEFLSLSLDQVCSLISSDKLTVSSEEKVFEAVISWINYEKETRLEHMAKLMEHVRLPLLPRDYLVQTVEEEALIKNNNTCKDFLIEAMKYHLLPLDQRLLIKNPRTKPRTPVSLPKVMIVVGGQAPKAIRSVECYDFEEDRWDQIAELPSRRCRAGVVFMAGHVYAVGGFNGSLRVRTVDVYDGVKDQWTSIASMQERRSTLGAAVLNDLLYAVGGFDGSTGLASVEAYSYKTNEWFFVAPMNTRRSSVGVGVVEGKLYAVGGYDGASRQCLSTVEQYNPATNEWIYVADMSTRRSGAGVGVLSGQLYATGGHDGPLVRKSVEVYDPGTNTWKQVADMNMCRRNAGVCAVNGLLYVVGGDDGSCNLASVEYYNPVTDKWTLLPTNMSTGRSYAGVAVIHKSL

Variants of: B1
Conditions: with md1l1_human MAD1L1, Q9Y6D9

| Variant | effect of a mutation on the interaction |
| --- | --- |
| R613Q | with no effect |

Variants of: B2
Conditions: with ubql1_human UBQLN1, Q9UMX0
ubql1_human UBQLN1, Q9UMX0, sequence (Q9UMX0 whole entry): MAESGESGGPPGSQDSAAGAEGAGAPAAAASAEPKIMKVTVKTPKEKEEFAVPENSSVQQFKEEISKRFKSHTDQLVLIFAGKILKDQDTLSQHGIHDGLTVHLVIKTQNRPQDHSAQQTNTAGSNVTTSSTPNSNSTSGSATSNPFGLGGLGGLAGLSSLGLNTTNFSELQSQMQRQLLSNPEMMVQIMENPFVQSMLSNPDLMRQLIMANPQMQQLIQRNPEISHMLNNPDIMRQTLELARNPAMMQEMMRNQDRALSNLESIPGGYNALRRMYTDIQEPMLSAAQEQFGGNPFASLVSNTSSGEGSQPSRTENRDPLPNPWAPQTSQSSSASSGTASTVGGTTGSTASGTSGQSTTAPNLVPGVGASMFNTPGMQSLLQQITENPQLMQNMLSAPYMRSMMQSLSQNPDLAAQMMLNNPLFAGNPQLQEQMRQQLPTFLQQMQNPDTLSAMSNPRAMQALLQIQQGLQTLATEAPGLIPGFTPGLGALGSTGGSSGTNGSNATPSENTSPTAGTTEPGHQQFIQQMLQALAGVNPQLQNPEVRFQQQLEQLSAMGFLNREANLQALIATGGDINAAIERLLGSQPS

| Variant | effect of a mutation on the interaction |
| --- | --- |
| E148G | with no effect |

Variants of: B2
Conditions: with bag6_human BAG6, P46379
bag6_human BAG6, P46379, sequence (P46379 whole entry): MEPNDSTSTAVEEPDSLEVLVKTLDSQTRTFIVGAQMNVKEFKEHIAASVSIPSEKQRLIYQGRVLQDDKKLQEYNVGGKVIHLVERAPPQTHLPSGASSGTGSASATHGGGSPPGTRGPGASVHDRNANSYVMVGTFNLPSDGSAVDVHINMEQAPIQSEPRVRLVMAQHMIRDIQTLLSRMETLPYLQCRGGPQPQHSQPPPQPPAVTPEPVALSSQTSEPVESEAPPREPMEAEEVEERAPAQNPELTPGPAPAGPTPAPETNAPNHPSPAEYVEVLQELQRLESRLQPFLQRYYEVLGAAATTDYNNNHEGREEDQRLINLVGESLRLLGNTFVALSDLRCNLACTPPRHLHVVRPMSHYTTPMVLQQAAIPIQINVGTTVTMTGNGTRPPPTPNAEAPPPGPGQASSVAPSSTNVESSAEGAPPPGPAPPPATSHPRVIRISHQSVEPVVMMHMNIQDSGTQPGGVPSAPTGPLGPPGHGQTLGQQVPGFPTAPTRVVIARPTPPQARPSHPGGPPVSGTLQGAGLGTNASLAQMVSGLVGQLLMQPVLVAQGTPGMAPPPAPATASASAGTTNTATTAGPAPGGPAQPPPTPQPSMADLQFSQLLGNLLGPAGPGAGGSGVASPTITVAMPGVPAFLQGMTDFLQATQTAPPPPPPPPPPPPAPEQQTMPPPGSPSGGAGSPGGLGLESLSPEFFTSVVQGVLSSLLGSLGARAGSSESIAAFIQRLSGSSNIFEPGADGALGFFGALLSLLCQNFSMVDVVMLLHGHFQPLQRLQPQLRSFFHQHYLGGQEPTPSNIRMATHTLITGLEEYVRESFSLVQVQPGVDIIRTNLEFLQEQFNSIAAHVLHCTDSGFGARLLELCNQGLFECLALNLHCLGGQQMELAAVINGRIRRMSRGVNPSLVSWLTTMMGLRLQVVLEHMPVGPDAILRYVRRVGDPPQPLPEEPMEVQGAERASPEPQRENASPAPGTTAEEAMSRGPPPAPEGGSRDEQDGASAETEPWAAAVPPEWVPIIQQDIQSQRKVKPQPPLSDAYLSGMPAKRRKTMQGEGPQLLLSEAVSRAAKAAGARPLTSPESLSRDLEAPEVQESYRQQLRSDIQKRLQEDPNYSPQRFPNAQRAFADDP

| Variant | effect of a mutation on the interaction |
| --- | --- |
| E148G | with no effect |

Variants of: B3
Conditions: with pbip1_human PBXIP1, Q96AQ6

| Variant | effect of a mutation on the interaction |
| --- | --- |
| F44L | with no effect |

Variants of: B4
Conditions: with cul3_human CUL3, Q13618

| Variant | effect of a mutation on the interaction |
| --- | --- |
| C164F | disrupting interaction strength |
| R228G | disrupting interaction strength |
